Measured values published in publication PMC11488661 (Science immunology, 2024).

B1: g28v2-D38-10_CLK19 (antibody, V domains shown)
VH: QVQLVQSGAEVKKPGASVKVSCKASGYTFTGYYIHWVRQAPGQGLEWMGWINPNSGGTNYPQKFQGRVTMTRDTSISTAYMELSRLRSDDTAVYYCALWFGEKWTFDIWGQGTMVTVSS
VL: DIQMTQSPSSLSASVGDRVTITCQASQDIGNYLNWYHQRPGKAPKLLIYDASNLETGVPSRFSGSGSGPDSTFTISTLQPEDIGTYYCQQYDTFGPGTKVDIK
B2: g28-D78-14_CLK09 (antibody, V domains shown)
VH: QVQLVQSGAEVKKPGASVRVSCKASGYTFTGNYIHWVRQAPGQGLEWMGWLNPINGGTNHAQKFQGRVTMTRDTSISTAYMELSRLRSDDTTVYYCARVGGLWFGKGWTFDIWGQGTMVTVSS
VL: DIQMTQSPSSLSASVGDRVTITCQASQDISILNWYQQKPGKAPKLLIYGASNLETGVPSRFSGSGSGTDFTLTISSLQPEDIATYYCQQYEFFGGGTKVAIK
B3: g28-D78-9_CLK09 (antibody, V domains shown)
VH: QVQLVQSGAEVKKPGASVRVSCKASGYTFTGNYIHWVRQAPGQGLEWMGWLNPINGGTNHAQKFQGRVTMTRDTSISTAYMELSRLRSDDTTVYYCARVGGLWSGKGWTFDIWGQGTMVTVSS
VL: DIQMTQSPSSLSASVGDRVTITCQASQDISILNWYQQKPGKAPKLLIYGASNLETGVPSRFSGSGSGTDFTFTISSLQPEDIATYYCQQYEFFGGGTKVEIK
B4: g28-D78-7_CLK09 (antibody, V domains shown)
VH: QVQLVQSGAEVKKPGASVRVSCKASGYTFTGNYIHWVRQAPGQGLEWMGWLNPINGGTNHAQKFQGRVTMTRDTSINTAYMELSRLKSDDTTVYYCARVGGLWSGKGWTFDIWGQGTMVTVSS
VL: DIQMTQSPSSLSASVGDRVTITCQASQDISILNWYQQKPGKAPKLLIYGASNLETGVPSRFSGSGSGTDFTFTISSLQPEDIATYYCQQYEFFGGGTKVEIK
B5: g28-D78-21_CLK09 (antibody, V domains shown)
VH: QLQESGAEVKKPGASVRVSCKASGYTFTGNYIHWVRQAPGQGLEWMGWVNPINGGTNHAQKFQGRVTMTRDTSISTAYMELSRLRSDDTTVYYCARVGGLWFGKGWTFDIWGQGTMVTVSS
VL: DIQMTQSPSSLSASVGDRVTITCQASQDISILNWYQQKPGKAPKLLIYGASNLETGVPSRFSGSGSGTDFTFTISSLQPEDIATYYCQQYEFFGGGTKVRIK
B6: g28-D78-17_CLK09 (antibody, V domains shown)
VH: QVQLVQSGAEVKKPGASVRVSCKASGYTFTGNYIHWVRQAPGQGLEWMGWLNPINGGTNHAQKFQGRVTMTRDTSISTAYMELSRLRSDDTTVYYCARVGGLWLGKGWTFDIWGQGTMVTVSS
VL: DIQMTQSPSSLSASVGDRVTITCQASQDISILNWYQQKPGKAPKLLIYGASNLETGVPSRFSGSGSGTDFTFTISSLQPEDIATYYCQQYEFFGGGTKVEIK
B7: g28-D78-10_CLK09 (antibody, V domains shown)
VH: QLQLVQSGADVKKPGASVKVSCKASGYTFTGYFIHWVRQAPGQGLEWMGWLNPIYGGVNYARNFQGRVTMTRDTSISTAYLELRRLKSDDTAVYYCARVAERMIFDVWGQGTMVTVSS
VL: DIQMTQSPSSLSASVGDRVTIACQASQDINNYVNWYQQKPGKAPKLLIYDASNLETGVPSRFSGSGSGTDFTFTISSLQPEDIATYYCQQYEFFGGGTKVEIK
B8: g28-D78-3_CLK09 (antibody, V domains shown)
VH: QLQLVQSGAEVKKPGASVKVSCKASGYTFTGYFIHWIRQAPGQGLEWMGWLNPIYGGVNYARNFQGRVTMTRDTSISTAYLELKRLKSDDTAVYYCARVAERMIFDVWGQGTMVTVSS
VL: DIQMTQSPSSLSASVGDRVTIACQASQDINNYVNWYQQKPGKAPKLLIYDASNLETGVPSRFSGSGSGTDFTFTISSLQPEDIATYYCQQYEFFGGGTKVRIK
B9: g28-D78-11_CLK09 (antibody, V domains shown)
VH: QLQLVQSGADVKKPGASVKVSCKASGYTFTGYFIHWVRQAPGQGLEWMGWLNPIYGGVNYARNFQDRVTMTRDTSISTAYLELRRLKSDDTAVYYCARVAERMIFDVWGQGTMVTVSS
VL: DIQMTQSPSSLSASVGDRVTIACQSSQGINNYVNWYQQKPGKAPKLLIYDASNLETGVPSRFSGSGSGTDFTFTISSLQPEDIATYYCQQYEFFGGGTKVEIK
B10: g28-D78-4_CLK09 (antibody, V domains shown)
VH: QLQLVQSGAEVKKPGASVKVSCKASGYTFTGYFIHWIRQAPGQGLEWMGWLNPIYGGVNYARNFQGRVTMTRDTSISTAYLELKRLKSDDTAVYYCARVAERMIFDVWGQGTMVTVSS
VL: DIQMTQSPSSLSASVGDRVTIACQASQDINNYVNWYQQKPGKAPKLLIYDASNLETGVPSRFSGSGSGTDFTFTISSLQPEDIATYYCQQYEFFGGGTKVEIK
B11: g28-D78-8_CLK09 (antibody, V domains shown)
VH: QLQLVQSGAEVKKPGASVKVSCKASRYTFTGYFIHWVRQAPGQGLEWMGWLNPIYGGVNYARNFQDRVTMTRDTSISTAYLELRRLKSDDTAVYYCARVAERMIFDVWGQGTMVTVSS
VL: DIQMTQSPSSLSASVGDRVTIACQASQDISNYVNWYQQKPGKAPKLLIYDASNLETGVPSRFSGSGSGTDFTFTISSLQPEDIATYYCQQYEFFGGGTKVRIK
B12: g28-D78-6_CLK09 (antibody, V domains shown)
VH: QLQLVQSGADVKKPGASVKVSCKASGYTFTGYFIHWVRQAPGQGLEWMGWLNPIYGGVNYARNFQDRVTMTRDTSISTAYLELRRLKSDDTAVYYCARVAERMIFDVWGQGTMVTVSS
VL: DIQMTQSPSSLSASVGDRVTIVCQASQDINNYVNWYQQKPGKAPKLLIYDASNLETGVPSRFSGSRSGTDFTFTISSLQPEDIATYYCQQYEFFGGGTKVEIK
B13: g28-D78-15_CLK09 (antibody, V domains shown)
VH: QLQLVQSGADVKTPGASVKVSCKASGYTFTSYFIHWVRQAPGQGLEWMGWLNPIYGAVNYARNFQDRVTMTRDTSISTAYLELRRLKSDDTAVYYCARVAERMIFDVWGQGTMVTVSS
VL: DIQMTQSPSSLSASVGDRVTIACQASQDINNYVNWYQQKPGKAPKLLIYDASNLETGVPSRFSGSGSGTDFTFTISSLQPEDIATYYCQQYEFFGGGTKVEIK
B14: g28-D78-5_CLK09 (antibody, V domains shown)
VH: QLQLVQSGAEVKKPGASVKVSCKASGYTFTGYFIHWVRQAPGQGLEWMGWLNPIYGGVNYARNFQDRVTMTRDTSISTAYLELRRLKSDDTAVYYCARVAERMIFDVWGQGTMVTVSS
VL: DIQMTQSPSSLSASVGDRVTIACQASQDISNYVNWYQQKPGKAPKLLIYDASNLETGVPSRFSGSGSGTDFTFTISSLQPEDIATYYCQQYEFFGGGTKVEIK
B15: g28-D78-20_CLK09 (antibody, V domains shown)
VH: QLQLVQSGAEVKKPGASVKVSCKASGYTFTGYFIHWVRQAPGQGLEWMGWLNPIYGGVNYARNFQDRVTMTRDTSISTAYLELRRLKSDDTAVYYCARVAERMIFDVWGQGTMVTVSS
VL: DIQMTQSPSSLSASVGDRVTIACQASQDINNYVNWYQQKPGKAPKLLIYDASNLETGVPSRFSGSGSGTDFTFTISSLQPEDIATYYCQQYEFFGGGTKVEIK
B16: g28-D78-16_CLK09 (antibody, V domains shown)
VH: QVQLVQSGAEVKKPGASVKVSCKASGYTFTGYHIHWVRQAPGQGLEWMGWVNPYHGGTNYAQIFQGRVTMTRDTSISTAYMELSRLRSDDTAVYYCALWFGEKKTFDIWGQGTMVTVSS
VL: DIQMTQSPSSLSASVGDRVTITCQASQGISNFLNWFQQKPGKAPKLLIYDVSNLETGVPSRFSGSGSGTDFTFTISSLQPEDIATYYCQQYEFFGGGTKVEIK
B17: g28-D78-2_CLK09 (antibody, V domains shown)
VH: QLQLVQSGAEVKKPGASVKVSCKASGYTFTGYFIHWVRQAPGQGLEWMGWLNPIYGGVNYARNFQGRVTMTRDTSISTAYLELKRLKSDDTAVYYCARVAERMIFDVWGQGTMVTVSS
VL: DIQMTQSPSSLSASVGDRVTIACQASQDINNYVNWYQQKPGKAPKLLIYDASNLETGVPSRFSGSRSGTDFTFTISSLQPEDIATYYCQQYEFFGGGTKVRIK
B18: g28-D78-13_CLK09 (antibody, V domains shown)
VH: QLQLVQSGAEVKKPGASVKVSCKASGYTFTGYFIHWVRQAPGQGLEWMGWLNPIYGGVNYARNFQGRVTMTRDTSISTAYLELKRLKSDDTAVYYCARVAERMIFDVWGQGTMVTVSS
VL: DIQMTQSPSSLSASVGDRVTIACQASQDINNYVNWYQQKPGKAPKLLIYDASNLETGVPSRFSGSGSGTDFTFTISSLQPEDIATYYCQQYEFFGGGTKVEIK
B19: g28-D78-18_CLK09 (antibody, V domains shown)
VH: QVQLVQSGAEVKKPGASVKVSCKASGYTFTDYHIHWVRQAPGQGLEWMGWVNPYHGGTNYAQIFQGRVTMTRDTSISTAYMELSRLRSDDTAVYYCALWFGEKKTFDIWGQGTMVTVSS
VL: DIQMTQSPSSLSASVGDRVTITCQASQGISNFLNWFQQKPGKAPKLLIYDVSNLETGVPSRFSGSGSGTDFTFTISSLQPEDIATYYCQQYEFFGGGTKVEIK
B20: g28-D78-12_CLK09 (antibody, V domains shown)
VH: QLQLVQSGTEVKKPGASVKVSCKASGYTFTGYFIHWVRQAPGQGLEWMGWLNPIYGGVNYARNFQGRVTMTRDTSISTAYLELKRLKSDDAAVYYCARVAERMIFDVWGQGTMVTVSS
VL: DIQMTQSPSSLSASVGDRVTIACQASQDINNYVNWYQQKPGKAPKLLIYDASNLETGVPSRFSGSGSGTDFTFTISSLQPEDIATYYCQQYEFFGGGTKVEIK
B21: g28-D78-1_CLK09 (antibody, V domains shown)
VH: QVQLVQSGAEVKKPGASVKVSCKTSGYTFTAYYVHWVRQAPGQGLEWMGWINPTNGATNYAQIFQGRVTMTRDTSISTAYMELNRLRSDDTAVYYCARVGGLWAFDIWGQGTIVTVSS
VL: DIQMTQSPSSLSASVGDRVTITCQTSQHITRNLNWYQQKPGKAPKLLISDAYNLKIGVPSRFSGSGSGTDFTFTISSLQPEDVATYYCQQYEFFGGGTEVEIK
B22: g28-D78-19_CLK09 (antibody, V domains shown)
VH: QVQLVQSGAEVKKPGASVKVSCKTSGYTFTAYYVHWVRQAPGQGLEWMGWINPTNGATNYAQIFQGRVTMTRDTSISTAYMELNRLRSDDTAVYYCARVGGLWAFDIWGQGTIVTVSS
VL: DIQMTQSPSSLSASVGDRVTITCQASQHITRNLNWYQQKPGKAPKLLISDAYNLKIGVPSRFSGSGSGTDFTFTISSLQPEDVATYYCQQYEFFGGGTEVEIK
B23: g28v2-D38-1_CLK19 (antibody, V domains shown)
VH: QVQLVQSGAEVKKPGASVKVSCKASGYTFTGHHMHWVRQAPGQGLEWLGWINPRGGGTNYAQKFQGRVTMTRDTSISTAYMDLSRLRSDDTAVYYCTPVLATFRWRFDYWGQGTLVTVSS
VL: DIQMTQSPSSLSASVGDRVTFTCQASQDISNFLNWYQQKPGKAPKLLIYDTSNLEAGVPSRFSGGGSGTDFTFTISSLQPEDVATYYCQQYATFGPGTKVDIK

Biological target: eOD-GT8 (monomeric ligand) (Human immunodeficiency virus 1, …)

Q: For B1, which Kd is on record?
A: 0.0433 nM

Q: Which Kd does the source give for B2 here?
A: 0.29 nM

Q: With B3 as the binder, how does the Kd read?
A: 0.19 nM

Q: How did the Kd turn out when B4 was run?
A: 0.2 nM

Q: Which Kd does the source give for B5 here?
A: 0.87 nM

Q: Which Kd does the source give for B6 here?
A: 0.25 nM

Q: B7 was tested. Which Kd did it give?
A: 11 nM

Q: Which Kd does the source give for B8 here?
A: 7.1 nM

Q: Which Kd does the source give for B9 here?
A: 9 nM

Q: How did the Kd turn out when B10 was run?
A: 6.5 nM

Q: For B11, which Kd is on record?
A: 8 nM

Q: How did the Kd turn out when B12 was run?
A: 7.6 nM

Q: Which Kd does the source give for B13 here?
A: 160 nM

Q: How did the Kd turn out when B14 was run?
A: 6 nM

Q: For B15, which Kd is on record?
A: 6.8 nM

Q: How did the Kd turn out when B16 was run?
A: 130 nM

Q: For B17, which Kd is on record?
A: 15 nM

Q: Which Kd does the source give for B18 here?
A: 11 nM

Q: With B19 as the binder, how does the Kd read?
A: 82 nM

Q: For B20, which Kd is on record?
A: 11 nM

Q: For B21, which Kd is on record?
A: 7.1 nM

Q: B22 was tested. Which Kd did it give?
A: 8.8 nM

Q: With B23 as the binder, how does the Kd read?
A: 6.29 nM
